Assays:
[1] = target: high molecular weight melanoma associated antigen (HMW-MAA), also known as CSPG4 (human) (UniProt Q6UVK1); assay: flow cytometry, melanoma cell line M233 (BRAF V600E), PE-conjugated anti-mouse IgG
[2] = target: high molecular weight melanoma associated antigen (HMW-MAA), also known as CSPG4 (human) (UniProt Q6UVK1); assay: flow cytometry, melanoma cell line 1287 (BRAF V600E), PE-conjugated anti-mouse IgG
[3] = target: high molecular weight melanoma associated antigen (HMW-MAA), also known as CSPG4 (human) (UniProt Q6UVK1); assay: flow cytometry, melanoma cell line SK-MEL-28 (BRAF V600E), PE-conjugated anti-mouse IgG
[4] = target: high molecular weight melanoma associated antigen (HMW-MAA), also known as CSPG4 (human) (UniProt Q6UVK1); assay: flow cytometry, melanoma cell line 526 (BRAF V600E), PE-conjugated anti-mouse IgG
[5] = target: high molecular weight melanoma associated antigen (HMW-MAA), also known as CSPG4 (human) (UniProt Q6UVK1); assay: flow cytometry, melanoma cell line SK-MEL-5 (BRAF V600E), PE-conjugated anti-mouse IgG
[6] = target: high molecular weight melanoma associated antigen (HMW-MAA), also known as CSPG4 (human) (UniProt Q6UVK1); assay: flow cytometry, melanoma cell line Mel624 (BRAF V600E), PE-conjugated anti-mouse IgG
[7] = target: high molecular weight melanoma associated antigen (HMW-MAA), also known as CSPG4 (human) (UniProt Q6UVK1); assay: flow cytometry, melanoma cell line WM1158 (BRAF V600E), PE-conjugated anti-mouse IgG
[8] = target: high molecular weight melanoma associated antigen (HMW-MAA), also known as CSPG4 (human) (UniProt Q6UVK1); assay: flow cytometry, melanoma cell line M21 (BRAF V600E), PE-conjugated anti-mouse IgG
[9] = target: high molecular weight melanoma associated antigen (HMW-MAA), also known as CSPG4 (human) (UniProt Q6UVK1); assay: flow cytometry, melanoma cell line UACC-257 (BRAF V600E), PE-conjugated anti-mouse IgG
[10] = target: high molecular weight melanoma associated antigen (HMW-MAA), also known as CSPG4 (human) (UniProt Q6UVK1); assay: flow cytometry, melanoma cell line SK-MEL-37 (BRAF V600E), PE-conjugated anti-mouse IgG
[11] = target: high molecular weight melanoma associated antigen (HMW-MAA), also known as CSPG4 (human) (UniProt Q6UVK1); assay: flow cytometry, melanoma cell line 836 (BRAF V600E), PE-conjugated anti-mouse IgG
[12] = target: high molecular weight melanoma associated antigen (HMW-MAA), also known as CSPG4 (human) (UniProt Q6UVK1); assay: flow cytometry, melanoma cell line 677 (BRAF V600E), PE-conjugated anti-mouse IgG
[13] = target: high molecular weight melanoma associated antigen (HMW-MAA), also known as CSPG4 (human) (UniProt Q6UVK1); assay: flow cytometry, melanoma cell line 1495 (BRAF V600E), PE-conjugated anti-mouse IgG
[14] = target: high molecular weight melanoma associated antigen (HMW-MAA), also known as CSPG4 (human) (UniProt Q6UVK1); assay: flow cytometry, melanoma cell line MV3 (BRAF wild type), PE-conjugated anti-mouse IgG
[15] = target: high molecular weight melanoma associated antigen (HMW-MAA), also known as CSPG4 (human) (UniProt Q6UVK1); assay: flow cytometry, melanoma cell line Colo38 (BRAF V600E), PE-conjugated anti-mouse IgG
[16] = target: high molecular weight melanoma associated antigen (HMW-MAA), also known as CSPG4 (human) (UniProt Q6UVK1); assay: flow cytometry, melanoma cell line SK-MEL-19 (BRAF V600E), PE-conjugated anti-mouse IgG

Sequence of high molecular weight melanoma associated antigen (HMW-MAA), also known as CSPG4 (human) (Q6UVK1 30-2322): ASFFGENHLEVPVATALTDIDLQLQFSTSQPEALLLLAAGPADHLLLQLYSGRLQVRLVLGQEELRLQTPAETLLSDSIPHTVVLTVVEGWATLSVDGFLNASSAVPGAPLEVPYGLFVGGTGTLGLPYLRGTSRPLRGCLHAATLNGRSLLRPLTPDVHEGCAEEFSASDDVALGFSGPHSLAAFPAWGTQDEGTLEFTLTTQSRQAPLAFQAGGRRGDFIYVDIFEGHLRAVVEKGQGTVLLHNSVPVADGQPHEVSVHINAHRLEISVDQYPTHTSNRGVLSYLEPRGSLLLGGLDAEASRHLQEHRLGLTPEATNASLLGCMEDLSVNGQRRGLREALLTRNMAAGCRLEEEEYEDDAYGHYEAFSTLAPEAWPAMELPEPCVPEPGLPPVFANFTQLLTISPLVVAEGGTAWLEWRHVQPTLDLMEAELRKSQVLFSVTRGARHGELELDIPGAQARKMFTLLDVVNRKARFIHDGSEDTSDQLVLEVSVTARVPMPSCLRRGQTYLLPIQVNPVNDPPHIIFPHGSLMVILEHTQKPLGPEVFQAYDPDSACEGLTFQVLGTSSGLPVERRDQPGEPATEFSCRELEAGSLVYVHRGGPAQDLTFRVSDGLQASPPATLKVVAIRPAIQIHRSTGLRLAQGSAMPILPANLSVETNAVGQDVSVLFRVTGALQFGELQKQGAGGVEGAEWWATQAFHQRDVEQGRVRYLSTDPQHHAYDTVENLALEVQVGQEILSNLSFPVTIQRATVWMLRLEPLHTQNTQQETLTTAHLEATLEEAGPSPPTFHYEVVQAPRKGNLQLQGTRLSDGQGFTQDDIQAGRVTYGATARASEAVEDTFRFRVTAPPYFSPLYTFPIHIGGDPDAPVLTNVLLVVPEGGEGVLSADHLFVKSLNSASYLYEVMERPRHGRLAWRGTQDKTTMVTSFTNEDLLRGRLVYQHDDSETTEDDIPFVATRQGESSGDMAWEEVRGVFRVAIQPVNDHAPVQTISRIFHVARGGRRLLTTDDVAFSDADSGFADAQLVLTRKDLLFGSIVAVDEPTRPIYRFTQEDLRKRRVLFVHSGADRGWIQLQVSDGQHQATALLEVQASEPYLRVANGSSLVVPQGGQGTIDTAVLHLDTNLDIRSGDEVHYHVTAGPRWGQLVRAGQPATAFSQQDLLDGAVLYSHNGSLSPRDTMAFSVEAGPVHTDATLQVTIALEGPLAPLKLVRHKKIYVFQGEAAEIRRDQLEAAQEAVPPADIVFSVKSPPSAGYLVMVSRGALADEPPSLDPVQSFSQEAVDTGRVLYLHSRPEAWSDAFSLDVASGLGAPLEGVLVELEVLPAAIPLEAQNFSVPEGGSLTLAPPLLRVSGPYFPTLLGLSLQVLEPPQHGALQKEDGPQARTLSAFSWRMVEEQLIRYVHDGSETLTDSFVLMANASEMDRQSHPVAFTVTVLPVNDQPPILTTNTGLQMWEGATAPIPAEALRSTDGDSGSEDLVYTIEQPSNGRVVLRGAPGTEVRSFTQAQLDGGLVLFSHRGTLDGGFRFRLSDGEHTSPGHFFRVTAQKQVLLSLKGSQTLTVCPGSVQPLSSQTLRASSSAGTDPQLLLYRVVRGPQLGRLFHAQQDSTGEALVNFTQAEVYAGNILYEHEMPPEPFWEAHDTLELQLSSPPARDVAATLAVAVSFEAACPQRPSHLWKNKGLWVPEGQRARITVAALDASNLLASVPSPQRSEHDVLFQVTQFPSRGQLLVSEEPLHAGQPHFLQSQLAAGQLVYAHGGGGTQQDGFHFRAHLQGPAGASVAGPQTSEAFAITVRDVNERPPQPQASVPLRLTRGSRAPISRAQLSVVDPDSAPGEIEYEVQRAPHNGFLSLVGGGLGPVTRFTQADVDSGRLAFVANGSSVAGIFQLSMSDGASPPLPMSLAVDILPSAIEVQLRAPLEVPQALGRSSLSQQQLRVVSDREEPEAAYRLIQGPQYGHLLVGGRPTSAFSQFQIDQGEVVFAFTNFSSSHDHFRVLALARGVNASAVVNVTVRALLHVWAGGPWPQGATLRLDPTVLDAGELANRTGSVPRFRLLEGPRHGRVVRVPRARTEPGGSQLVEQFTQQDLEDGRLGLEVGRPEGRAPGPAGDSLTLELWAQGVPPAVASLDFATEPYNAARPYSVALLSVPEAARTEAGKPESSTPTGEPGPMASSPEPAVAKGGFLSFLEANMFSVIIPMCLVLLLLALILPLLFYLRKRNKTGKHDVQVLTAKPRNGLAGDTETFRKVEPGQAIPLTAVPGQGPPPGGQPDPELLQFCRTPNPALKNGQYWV

HMW-MAA (CSPG4)-specific mouse mAb 225.28 (antibody)
% of cells that express CSPG4 [1]: 40.8% | MFI [1]: 274 | % of cells that express CSPG4 [2]: 99.9% | MFI [2]: 117 | % of cells that express CSPG4 [3]: 99.8% | MFI [3]: 572 | % of cells that express CSPG4 [4]: 78.4% | MFI [4]: 20.2 | % of cells that express CSPG4 [5]: 99.6% | MFI [5]: 275 | % of cells that express CSPG4 [6]: 88.2% | MFI [6]: 130 | % of cells that express CSPG4 [7]: 99.8% | MFI [7]: 586 | % of cells that express CSPG4 [8]: 99.9% | MFI [8]: 917 | % of cells that express CSPG4 [9]: 99.9% | MFI [9]: 890 | % of cells that express CSPG4 [10]: 99.9% | MFI [10]: 280 | % of cells that express CSPG4 [11]: 99.4% | MFI [11]: 1210 | % of cells that express CSPG4 [12]: 93% | MFI [12]: 55.8 | % of cells that express CSPG4 [13]: 80% | MFI [13]: 437 | % of cells that express CSPG4 [14]: 99.7% | MFI [14]: 581 | % of cells that express CSPG4 [15]: 99.8% | MFI [15]: 493 | % of cells that express CSPG4 [16]: 99.9% | MFI [16]: 607

Reference: patent publication US20130259873A1
